# Experimental data published in PMC8857464.
# B1: AlaRS (Escherichia coli K-12) (protein)
# chain: SKSTAEIRQAFLDFFHSKGHQVVASSSLVPHNDPTLLFTNAGMNQFKDVFLGLDKRNYSRATTSQRCVRAGGKHNDLENVGYTARHHTFFEMLGNFSFGDYFKHDAIQFAWELLTSEKWFALPKERLWVTVYESDDEAYEIWEKEVGIPRERIIRIGDNKGAPYASDNFWQMGDTGPCGPCTEIFYDHGDHIWGGPPGSPEEDGDRYIEIWNIVFMQFNRQADGTMEPLPKPSVDTGMGLERIAAVLQHVNSNYDIDLFRTLIQAVAKVTGATDLSNKSLRVIADHIRSCAFLIADGVMPSNENRGYVLRRIIRRAVRHGNMLGAKETFFYKLVGPLIDVMGSAGEDLKRQQAQVEQVLKTEEEQFARTLERGLALLDEELAKLSGDTLDGETAFRLYDTYGFPVDLTADVCRERNIKVDEAGFEAAMEEQRRRAREASGFGADYNAMIRVDSASEFKGYDHLELNGKVTALFVDGKAVDAINAGQEAVVVLDQTPFYAESGGQVGDKGELKGANFSFAVEDTQKYGQAIGHIGKLAAGSLKVGDAVQADVDEARRARIRLNHSATHLMHAALRQVLGTHVSQKGSLVNDKVLRFDFSHNEAMKPEEIRAVEDLVNTQIRRNLPIETNIMDLEAAKAKGAMALFGEKYDERVRVLSMGDFSTELCGGTHASRTGDIGLFRIISESGTAAGVRRIEAVTGEGAIATVHADSDRLSEVAHLLKGDSNNLADKVRSVLERTRQLEKELQQLKEQAAAQESANLSSKAIDVNGVKLLVSELSGVEPKMLRTMVDDLKNQLGSTIIVLATVVEGKVSLIAGVSKDVTDRVKAGELIGMVAQQVGGKGGGRPDMAQAGGTDAAALPAALASVKGWVSAKLQ
# Substrate: C[C@H](N)C(=O)O
# Assay: purified protein
# Settings: nonoxidized enzyme (no H2O2), amino acid activation, 2 mM ATP, 2 mM PPi, 10 mM MgCl2, pH 7.2, 37 °C
protein,measurement,value
B1,Km,329 ± 84.6 µM
same,kcat,16 s⁻¹
same,kcat/Km,48300 M⁻¹ s⁻¹
